Test results published in US20260242735A1.

Legend:
human CD33 Y50G (human) = human CD33 Y50G (human) (UniProt P20138); test: flow cytometry on transfected cells, IgG
human CD33 I47G (human) = human CD33 I47G (human) (UniProt P20138); test: flow cytometry on transfected cells, IgG
human CD33 F43V (human) = human CD33 F43V (human) (UniProt P20138); test: flow cytometry on transfected cells, IgG
human CD33 F44L (human) = human CD33 F44L (human) (UniProt P20138); test: flow cytometry on transfected cells, IgG
human CD33 I47W (human) = human CD33 I47W (human) (UniProt P20138); test: flow cytometry on transfected cells, IgG
human CD33 Y49D (human) = human CD33 Y49D (human) (UniProt P20138); test: flow cytometry on transfected cells, IgG
human CD33 Y50V (human) = human CD33 Y50V (human) (UniProt P20138); test: flow cytometry on transfected cells, IgG
human CD33 F44I (human) = human CD33 F44I (human) (UniProt P20138); test: flow cytometry on transfected cells, IgG
human CD33 Y50S (human) = human CD33 Y50S (human) (UniProt P20138); test: flow cytometry on transfected cells, IgG
human CD33 Y49T (human) = human CD33 Y49T (human) (UniProt P20138); test: flow cytometry on transfected cells, IgG
human CD33 I47F (human) = human CD33 I47F (human) (UniProt P20138); test: flow cytometry on transfected cells, IgG
human CD33 P46Y (human) = human CD33 P46Y (human) (UniProt P20138); test: flow cytometry on transfected cells, IgG
human CD33 P48I (human) = human CD33 P48I (human) (UniProt P20138); test: flow cytometry on transfected cells, IgG
human CD33 F44V (human) = human CD33 F44V (human) (UniProt P20138); test: flow cytometry on transfected cells, IgG
human CD33 P46S (human) = human CD33 P46S (human) (UniProt P20138); test: flow cytometry on transfected cells, IgG
human CD33 I47V (human) = human CD33 I47V (human) (UniProt P20138); test: flow cytometry on transfected cells, IgG
human CD33 I47Y (human) = human CD33 I47Y (human) (UniProt P20138); test: flow cytometry on transfected cells, IgG
human CD33 F44Q (human) = human CD33 F44Q (human) (UniProt P20138); test: flow cytometry on transfected cells, IgG
human CD33 L316A (human) = human CD33 L316A (human) (UniProt P20138); test: flow cytometry, HEK293-T, alanine scan
human CD33 G327A (human) = human CD33 G327A (human) (UniProt P20138); test: flow cytometry, HEK293-T, alanine scan
human CD33 R286A (human) = human CD33 R286A (human) (UniProt P20138); test: flow cytometry, HEK293-T, alanine scan
human CD33 F279A (human) = human CD33 F279A (human) (UniProt P20138); test: flow cytometry, HEK293-T, alanine scan
human CD33 H300A (human) = human CD33 H300A (human) (UniProt P20138); test: flow cytometry, HEK293-T, alanine scan
human CD33 G318A (human) = human CD33 G318A (human) (UniProt P20138); test: flow cytometry, HEK293-T, alanine scan
human CD33 V282A (human) = human CD33 V282A (human) (UniProt P20138); test: flow cytometry, HEK293-T, alanine scan
human CD33 D335A (human) = human CD33 D335A (human) (UniProt P20138); test: flow cytometry, HEK293-T, alanine scan
human CD33 P330A (human) = human CD33 P330A (human) (UniProt P20138); test: flow cytometry, HEK293-T, alanine scan
human CD33 S307A (human) = human CD33 S307A (human) (UniProt P20138); test: flow cytometry, HEK293-T, alanine scan
human CD33 T302A (human) = human CD33 T302A (human) (UniProt P20138); test: flow cytometry, HEK293-T, alanine scan
human CD33 Q311A (human) = human CD33 Q311A (human) (UniProt P20138); test: flow cytometry, HEK293-T, alanine scan
human CD33 L275A (human) = human CD33 L275A (human) (UniProt P20138); test: flow cytometry, HEK293-T, alanine scan
human CD33 S342A (human) = human CD33 S342A (human) (UniProt P20138); test: flow cytometry, HEK293-T, alanine scan
human CD33 T322A (human) = human CD33 T322A (human) (UniProt P20138); test: flow cytometry, HEK293-T, alanine scan
human CD33 R296A (human) = human CD33 R296A (human) (UniProt P20138); test: flow cytometry, HEK293-T, alanine scan
human CD33 N297A (human) = human CD33 N297A (human) (UniProt P20138); test: flow cytometry, HEK293-T, alanine scan
human CD33 C276A (human) = human CD33 C276A (human) (UniProt P20138); test: flow cytometry, HEK293-T, alanine scan
human CD33 Y340A (human) = human CD33 Y340A (human) (UniProt P20138); test: flow cytometry, HEK293-T, alanine scan
human CD33 K313A (human) = human CD33 K313A (human) (UniProt P20138); test: flow cytometry, HEK293-T, alanine scan
human CD33 S323A (human) = human CD33 S323A (human) (UniProt P20138); test: flow cytometry, HEK293-T, alanine scan
human CD33 P319A (human) = human CD33 P319A (human) (UniProt P20138); test: flow cytometry, HEK293-T, alanine scan
human CD33 A306S (human) = human CD33 A306S (human) (UniProt P20138); test: flow cytometry, HEK293-T, alanine scan
human CD33 T284A (human) = human CD33 T284A (human) (UniProt P20138); test: flow cytometry, HEK293-T, alanine scan
human CD33 S314A (human) = human CD33 S314A (human) (UniProt P20138); test: flow cytometry, HEK293-T, alanine scan
human CD33 K288A (human) = human CD33 K288A (human) (UniProt P20138); test: flow cytometry, HEK293-T, alanine scan
human CD33 P301A (human) = human CD33 P301A (human) (UniProt P20138); test: flow cytometry, HEK293-T, alanine scan
human CD33 P308A (human) = human CD33 P308A (human) (UniProt P20138); test: flow cytometry, HEK293-T, alanine scan

Chain of human CD33 Q311A (human) (P20138 18-364 Q311A limits assumed): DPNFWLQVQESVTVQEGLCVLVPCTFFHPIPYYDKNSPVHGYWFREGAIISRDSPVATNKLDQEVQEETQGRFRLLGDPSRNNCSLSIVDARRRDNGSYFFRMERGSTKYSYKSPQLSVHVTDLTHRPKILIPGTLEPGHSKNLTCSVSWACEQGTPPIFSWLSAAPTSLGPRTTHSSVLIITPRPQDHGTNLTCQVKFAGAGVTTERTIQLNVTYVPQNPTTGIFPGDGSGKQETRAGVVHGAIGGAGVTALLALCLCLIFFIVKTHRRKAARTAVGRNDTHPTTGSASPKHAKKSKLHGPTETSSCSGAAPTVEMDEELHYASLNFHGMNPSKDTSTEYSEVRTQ
Chain of human CD33 F44V (human) (P20138 18-364 F44V limits assumed): as the sequence (P20138 18-364 Q311A limits assumed) above, with F27V, A294Q counted along it
Chain of human CD33 Y340A (human) (P20138 18-364 Y340A limits assumed): as the sequence (P20138 18-364 Q311A limits assumed) above, with A294Q, Y323A counted along it
Chain of human CD33 N297A (human) (P20138 18-364 N297A limits assumed): as the sequence (P20138 18-364 Q311A limits assumed) above, with N280A, A294Q counted along it
Chain of human CD33 I47V (human) (P20138 18-364 I47V limits assumed): as the sequence (P20138 18-364 Q311A limits assumed) above, with I30V, A294Q counted along it
Chain of human CD33 R296A (human) (P20138 18-364 R296A limits assumed): as the sequence (P20138 18-364 Q311A limits assumed) above, with R279A, A294Q counted along it
Chain of human CD33 K288A (human) (P20138 18-364 K288A limits assumed): as the sequence (P20138 18-364 Q311A limits assumed) above, with K271A, A294Q counted along it
Chain of human CD33 L316A (human) (P20138 18-364 L316A limits assumed): as the sequence (P20138 18-364 Q311A limits assumed) above, with A294Q, L299A counted along it
Chain of human CD33 H300A (human) (P20138 18-364 H300A limits assumed): as the sequence (P20138 18-364 Q311A limits assumed) above, with H283A, A294Q counted along it
Chain of human CD33 S307A (human) (P20138 18-364 S307A limits assumed): as the sequence (P20138 18-364 Q311A limits assumed) above, with S290A, A294Q counted along it
Chain of human CD33 I47G (human) (P20138 18-364 I47G limits assumed): as the sequence (P20138 18-364 Q311A limits assumed) above, with I30G, A294Q counted along it
Chain of human CD33 G318A (human) (P20138 18-364 G318A limits assumed): as the sequence (P20138 18-364 Q311A limits assumed) above, with A294Q, G301A counted along it
Chain of human CD33 P46S (human) (P20138 18-364 P46S limits assumed): as the sequence (P20138 18-364 Q311A limits assumed) above, with P29S, A294Q counted along it
Chain of human CD33 Y49D (human) (P20138 18-364 Y49D limits assumed): as the sequence (P20138 18-364 Q311A limits assumed) above, with Y32D, A294Q counted along it

Refmab #7 (WM53) (antibody)
Mean % WT Binding (human CD33 Y50G (human)): 17.2 % WT binding
Mean % WT Binding (human CD33 I47G (human)): 15.1 % WT binding
Mean % WT Binding (human CD33 F43V (human)): 73.4 % WT binding
Mean % WT Binding (human CD33 F44L (human)): 99.6 % WT binding
Mean % WT Binding (human CD33 I47W (human)): 45.4 % WT binding
Mean % WT Binding (human CD33 Y49D (human)): 3.9 % WT binding
Mean % WT Binding (human CD33 Y50V (human)): 3.9 % WT binding
Mean % WT Binding (human CD33 F44I (human)): 46.1 % WT binding
Mean % WT Binding (human CD33 Y50S (human)): 7.7 % WT binding
Mean % WT Binding (human CD33 Y49T (human)): 0.1 % WT binding
Mean % WT Binding (human CD33 I47F (human)): 85.2 % WT binding
Mean % WT Binding (human CD33 P46Y (human)): 8.6 % WT binding
Mean % WT Binding (human CD33 P48I (human)): 0.1 % WT binding
Mean % WT Binding (human CD33 F44V (human)): 36.1 % WT binding
Mean % WT Binding (human CD33 P46S (human)): 96.4 % WT binding
Mean % WT Binding (human CD33 I47V (human)): 97.4 % WT binding
Mean % WT Binding (human CD33 I47Y (human)): 79.6 % WT binding
Mean % WT Binding (human CD33 F44Q (human)): 74.8 % WT binding
Mean % WT Binding (human CD33 L316A (human)): 103 % WT binding
Mean % WT Binding (human CD33 G327A (human)): 110 % WT binding
Mean % WT Binding (human CD33 R286A (human)): 134 % WT binding
Mean % WT Binding (human CD33 F279A (human)): 124 % WT binding
Mean % WT Binding (human CD33 H300A (human)): 106 % WT binding
Mean % WT Binding (human CD33 G318A (human)): 128 % WT binding
Mean % WT Binding (human CD33 V282A (human)): 106 % WT binding
Mean % WT Binding (human CD33 D335A (human)): 106 % WT binding
Mean % WT Binding (human CD33 P330A (human)): 102 % WT binding
Mean % WT Binding (human CD33 S307A (human)): 91.7 % WT binding
Mean % WT Binding (human CD33 T302A (human)): 113 % WT binding
Mean % WT Binding (human CD33 Q311A (human)): 93.6 % WT binding
Mean % WT Binding (human CD33 L275A (human)): 106 % WT binding
Mean % WT Binding (human CD33 S342A (human)): 95.2 % WT binding
Mean % WT Binding (human CD33 T322A (human)): 102 % WT binding
Mean % WT Binding (human CD33 R296A (human)): 93.6 % WT binding
Mean % WT Binding (human CD33 N297A (human)): 81.2 % WT binding
Mean % WT Binding (human CD33 C276A (human)): 110 % WT binding
Mean % WT Binding (human CD33 Y340A (human)): 112 % WT binding
Mean % WT Binding (human CD33 K313A (human)): 108 % WT binding
Mean % WT Binding (human CD33 S323A (human)): 109 % WT binding
Mean % WT Binding (human CD33 P319A (human)): 114 % WT binding
Mean % WT Binding (human CD33 A306S (human)): 100 % WT binding
Mean % WT Binding (human CD33 T284A (human)): 120 % WT binding
Mean % WT Binding (human CD33 S314A (human)): 107 % WT binding
Mean % WT Binding (human CD33 K288A (human)): 128 % WT binding
Mean % WT Binding (human CD33 P301A (human)): 99.8 % WT binding
Mean % WT Binding (human CD33 P308A (human)): 111 % WT binding
